Measurements published in patent US20110077196A1.

Target: human insulin receptor isoform B (human) (UniProt P06213)
Experiment: competitive displacement of 125I-Tyr^A14-insulin, plate antibody capture of receptor

UniProt P06213, sequence (P06213 other isoform, or with tags, fused parts or gaps): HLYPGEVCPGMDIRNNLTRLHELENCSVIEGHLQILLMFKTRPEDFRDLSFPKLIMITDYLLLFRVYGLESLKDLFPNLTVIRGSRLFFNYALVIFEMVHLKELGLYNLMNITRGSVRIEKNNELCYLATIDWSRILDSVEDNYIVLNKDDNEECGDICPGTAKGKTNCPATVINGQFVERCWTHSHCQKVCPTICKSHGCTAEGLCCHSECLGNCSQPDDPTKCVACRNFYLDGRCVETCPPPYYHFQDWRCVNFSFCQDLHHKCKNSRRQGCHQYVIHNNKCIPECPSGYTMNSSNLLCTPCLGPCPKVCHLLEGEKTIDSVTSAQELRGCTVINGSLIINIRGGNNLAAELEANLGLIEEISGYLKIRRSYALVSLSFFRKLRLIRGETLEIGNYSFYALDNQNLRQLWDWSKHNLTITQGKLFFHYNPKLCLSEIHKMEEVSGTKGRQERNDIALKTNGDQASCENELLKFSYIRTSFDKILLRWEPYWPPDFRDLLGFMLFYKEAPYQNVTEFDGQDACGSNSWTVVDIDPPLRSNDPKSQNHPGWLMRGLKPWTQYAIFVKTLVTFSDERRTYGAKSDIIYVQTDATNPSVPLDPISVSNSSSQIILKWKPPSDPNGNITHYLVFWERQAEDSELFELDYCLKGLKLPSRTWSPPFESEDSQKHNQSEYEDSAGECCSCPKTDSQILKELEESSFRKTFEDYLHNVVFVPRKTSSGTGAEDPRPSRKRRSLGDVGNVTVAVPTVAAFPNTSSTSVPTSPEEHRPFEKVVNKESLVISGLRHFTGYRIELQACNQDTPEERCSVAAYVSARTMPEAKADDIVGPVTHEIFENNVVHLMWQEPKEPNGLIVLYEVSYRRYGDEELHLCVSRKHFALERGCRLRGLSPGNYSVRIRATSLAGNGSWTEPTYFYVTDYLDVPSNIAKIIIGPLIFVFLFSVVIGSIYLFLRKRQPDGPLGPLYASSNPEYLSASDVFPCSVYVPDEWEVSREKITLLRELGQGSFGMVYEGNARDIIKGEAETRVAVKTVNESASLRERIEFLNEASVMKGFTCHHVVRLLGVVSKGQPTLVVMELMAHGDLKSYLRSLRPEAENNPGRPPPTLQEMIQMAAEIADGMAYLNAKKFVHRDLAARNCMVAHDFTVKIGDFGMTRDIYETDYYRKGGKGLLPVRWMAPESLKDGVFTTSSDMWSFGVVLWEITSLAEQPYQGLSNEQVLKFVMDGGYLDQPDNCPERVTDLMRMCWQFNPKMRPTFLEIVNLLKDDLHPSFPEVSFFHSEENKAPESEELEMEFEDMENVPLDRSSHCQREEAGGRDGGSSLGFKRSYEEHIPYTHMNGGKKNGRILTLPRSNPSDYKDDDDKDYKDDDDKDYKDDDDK

XKPEE: analogue with 2-methyl-Phe^B24 (called X), Lys^B28, Pro^B29, and EE-extension (Glu^B31, Glu^B32) (ligand)
Kd: 0.04 nM
